Data from patent US9212231B2, “TRAIL R2-specific multimeric scaffolds” (MEDIMMUNE, LLC, dated 2015).
“And” between values parts separate entries of the source, which are not always exact repeats. Equal values may be shown once. Blank lines part the entries; values can stand above or below the binder they belong to.

Key:
[1] = target: Murine CD40L on the Th2 cell line D10.G4.1 (murine, UniProt P27548); assay: cell-based or functional assay
[2] = target: recombinant Murine CD40L (E. coli produced) (murine, UniProt P27548); assay: biosensor competition: inhibition of Murine CD40L (0.5 µg/ml) binding to immobilised Murine CD40-Fc
[3] = target: TRAIL R2 (recombinant, form not given) (human, UniProt O14763, biotin (in the capture ELISA and the competition ELISA of Example 14)); assay: SPR (ProteOn XPR36), TRAIL R2 immobilised, equilibrium analysis
[4] = target: T1, TRAIL R2 expressed on the cell surface (human, UniProt O14763); assay: cell-based or functional assay
[5] = target: T1, TRAIL R2 expressed on the cell surface; assay: cell-based or functional assay; remark: listed apart in the source
[6] = target: T1, TRAIL R2 expressed on the cell surface; assay: cell-based or functional assay; remark: listed apart in the source
[7] = target: T1, TRAIL R2 expressed on the cell surface; assay: cell-based or functional assay; remark: listed apart in the source

B2: 1C12 (designed binder)
chain: AIEVKDVTDTTALITWAKPEKWDGSIYGCELAYGIKDVPGDRTTIDLNSRHTAYSIGNLKPDTEYEVSLICFTPYGAKSNPAKETFTTGGGTLGHHHHHHHH
Kd [3]: 4130 nM

B3: G3 (designed binder)
chain: AIEVKDVTDTTALITWAKPEKWDPPLWGCELAYGIKDVPGDRTTIDLNSRHTAYSIGNLKPDTEYEVSLICFTPYGAKSNPAKETFTTGGGTLGHHHHHHHH
Fold Improvement (Kd, against lead clone 1C12) [3]: 10 fold
Kd [3]: 422 nM

B4: C3(M13) (designed binder)
chain: AIEVKDVTDTTALITWHDAFGYDFGCELTYGIKDVPGDRTTIDLPDHFHNYSIGNLKPDTEYEVSLICANDHGFDSNPAKETFTTGGGGSGGGGSGGGGSGGGGSGGGGSRLDAPGQIEVKDVTDTTALITWHDAFGYDFGCELTYGIKDVPGDRTTIDLPDHFHNYSIGNLKPDTEYEVSLICANDHGFDSNPAKETFTTGGGTLGHHHHHHHH
IC50, inhibition of Murine CD40L-induced CD86 expression on CD19 gated B cells [1]: 100000 to 200000 nM
IC50 [2]: 5 nM and 6 nM

B9: A3 (G6) (designed binder)
chain: SGGGGSAIEVKDVTDTTALITWAKPWVDPPPLWGCELAYGIKDVPGDRTTIDLQQKHTAYSIGNLKPDTEYEVSLICFDPYGMRSKPAKETFTTGGGGSGGGGSGGGGSAIEVKDVTDTTALITWAKPWVDPPPLWGCELAYGIKDVPGDRTTIDLQQKHTAYSIGNLKPDTEYEVSLICFDPYGMRSKPAKETFTTGGGGSGGGGSGGGGSAIEVKDVTDTTALITWAKPWVDPPPLWGCELAYGIKDVPGDRTTIDLQQKHTAYSIGNLKPDTEYEVSLICFDPYGMRSKPAKETFTTGGGGSGGGGSGGGGSAIEVKDVTDTTALITWAKPWVDPPPLWGCELAYGIKDVPGDRTTIDLQQKHTAYSIGNLKPDTEYEVSLICFDPYGMRSKPAKETFTTGGGGSGGGGSGTLGHHHHHHHH
EC50, killing of Colo205 cells [5]: 0.04 nM
Maximum Inhibition %, Colo205 cells [5]: 97%
EC50, killing of Jurkat cells [6]: 0.05 nM
Maximum Inhibition %, Jurkat cells [6]: 83%

B11: C1(M13) (designed binder)
chain: AIEVKDVTDTTALITWHDAFGYDFGCELTYGIKDVPGDRTTIDLPDHFHNYSIGNLKPDTEYEVSLICANDHGFDSNPAKETFTTAGGGGSRLDAPGQIEVKDVTDTTALITWHDAFGYDFGCELTYGIKDVPGDRTTIDLPDHFHNYSIGNLKPDTEYEVSLICANDHGFDSNPAKETFTTGGGTLGHHHHHHHH
IC50, inhibition of Murine CD40L-induced CD86 expression on CD19 gated B cells [1]: 100000 to 200000 nM
IC50 [2]: 29 nM

B12: C2(M13) (designed binder)
chain: AIEVKDVTDTTALITWHDAFGYDFGCELTYGIKDVPGDRTTIDLPDHFHNYSIGNLKPDTEYEVSLICANDHGFDSNPAKETFTTGGGGSGGGGSGGGGSRLDAPGQIEVKDVTDTTALITWHDAFGYDFGCELTYGIKDVPGDRTTIDLPDHFHNYSIGNLKPDTEYEVSLICANDHGFDSNPAKETFTTGGGTLGHHHHHHHH
IC50, inhibition of Murine CD40L-induced CD86 expression on CD19 gated B cells [1]: 100000 to 200000 nM
IC50 [2]: 5 nM and 6 nM

Continued, in another order:

IC50, inhibition of Murine CD40L-induced CD86 expression on CD19 gated B cells [1]: 100000 to 200000 nM
IC50 [2]: 5 nM and 6 nM
B1: C4(M13) (designed binder)
chain: AIEVKDVTDTTALITWHDAFGYDFGCELTYGIKDVPGDRTTIDLPDHFHNYSIGNLKPDTEYEVSLICANDHGFDSNPAKETFTTGGGGSGGGGSGGGGSGGGGSGGGGSGGGGSGGGGSRLDAPGQIEVKDVTDTTALITWHDAFGYDFGCELTYGIKDVPGDRTTIDLPDHFHNYSIGNLKPDTEYEVSLICANDHGFDSNPAKETFTTGGGTLGHHHHHHHH

IC50 [2]: 71 nM
B5: M13 (M13) (designed binder)
chain: AIEVKDVTDTTALITWHDAFGYDFGCELTYGIKDVPGDRTTIDLPDHFHNYSIGNLKPDTEYEVSLICANDHGFDSNPAKETFTTGGGTLGHHHHHHHH

Fold Improvement (Kd, against lead clone 1C12) [3]: 83 fold
Kd [3]: 50 nM
B6: C4 (designed binder)
chain: AIEVKDVTDTTALITWAKPWVDPPPLWGCELAYGIKDVPGDRTTIDLQQKHTAYSIGNLKPDTEYEVSLICFDPYNKRNVPAKETFTTGGGTLGHHHHHHHH

Fold Improvement (Kd, against lead clone 1C12) [3]: 96 fold
Kd [3]: 43 nM
B7: G6 (designed binder)
chain: AIEVKDVTDTTALITWAKPWVDPPPLWGCELAYGIKDVPGDRTTIDLQQKHTAYSIGNLKPDTEYEVSLICFDPYGMRSKPAKETFTTGGGTLGHHHHHHHH

Maximum Inhibition %, H2122 cells [4]: 97%
B8: A5(1E11) (designed binder)
chain: SGGGGSAIEVKDVTDTTALITWAKPWVDPPPLWGCELAYGIKDVPGDRTTIDLQQKHTAYSIGNLKPDTEYEVSLICFDPYGAKSNPAKETFTTGGGGSGGGGSGGGGSAIEVKDVTDTTALITWAKPWVDPPPLWGCELAYGIKDVPGDRTTIDLQQKHTAYSIGNLKPDTEYEVSLICFDPYGAKSNPAKETFTTGGGGSGGGGSGGGGSAIEVKDVTDTTALITWAKPWVDPPPLWGCELAYGIKDVPGDRTTIDLQQKHTAYSIGNLKPDTEYEVSLICFDPYGAKSNPAKETFTTGGGGSGGGGSGGGGSAIEVKDVTDTTALITWAKPWVDPPPLWGCELAYGIKDVPGDRTTIDLQQKHTAYSIGNLKPDTEYEVSLICFDPYGAKSNPAKETFTTGGGGSGGGGSGTGSAMASGGGGSAIEVKDVTDTTALITWAKPWVDPPPLWGCELAYGIKDVPGDRTTIDLQQKHTAYSIGNLKPDTEYEVSLICFDPYGAKSNPAKETFTTGGGGSGGGGSGGGGSAIEVKDVTDTTALITWAKPWVDPPPLWGCELAYGIKDVPGDRTTIDLQQKHTAYSIGNLKPDTEYEVSLICFDPYGAKSNPAKETFTTGGGGSGGGGSGGGGSAIEVKDVTDTTALITWAKPWVDPPPLWGCELAYGIKDVPGDRTTIDLQQKHTAYSIGNLKPDTEYEVSLICFDPYGAKSNPAKETFTTGGGGSGGGGSGGGGSAIEVKDVTDTTALITWAKPWVDPPPLWGCELAYGIKDVPGDRTTIDLQQKHTAYSIGNLKPDTEYEVSLICFDPYGAKSNPAKETFTTGGGGSGGGGSGTLGHHHHHHHH
EC50, killing of H2122 cells [4]: 0.0006 nM

Maximum Inhibition %, H2122 cells [4]: 97%
B10: A4(1E11) (designed binder)
chain: SGGGGSAIEVKDVTDTTALITWAKPWVDPPPLWGCELAYGIKDVPGDRTTIDLQQKHTAYSIGNLKPDTEYEVSLICFDPYGAKSNPAKETFTTGGGGSGGGGSGGGGSAIEVKDVTDTTALITWAKPWVDPPPLWGCELAYGIKDVPGDRTTIDLQQKHTAYSIGNLKPDTEYEVSLICFDPYGAKSNPAKETFTTGGGGSGGGGSGGGGSAIEVKDVTDTTALITWAKPWVDPPPLWGCELAYGIKDVPGDRTTIDLQQKHTAYSIGNLKPDTEYEVSLICFDPYGAKSNPAKETFTTGGGGSGGGGSGGGGSAIEVKDVTDTTALITWAKPWVDPPPLWGCELAYGIKDVPGDRTTIDLQQKHTAYSIGNLKPDTEYEVSLICFDPYGAKSNPAKETFTTGGGGSGGGGSGTGSAMASGGGGSAIEVKDVTDTTALITWAKPWVDPPPLWGCELAYGIKDVPGDRTTIDLQQKHTAYSIGNLKPDTEYEVSLICFDPYGAKSNPAKETFTTGGGGSGGGGSGGGGSAIEVKDVTDTTALITWAKPWVDPPPLWGCELAYGIKDVPGDRTTIDLQQKHTAYSIGNLKPDTEYEVSLICFDPYGAKSNPAKETFTTGGGGSGGGGSGTLGHHHHHHHH
EC50, killing of H2122 cells [4]: 0.0009 nM

Maximum Inhibition %, Colo205 cells [5]: 100%
Maximum Inhibition %, Jurkat cells [6]: 100%
B13: A5(G6) (designed binder)
chain: SGGGGSAIEVKDVTDTTALITWAKPWVDPPPLWGCELAYGIKDVPGDRTTIDLQQKHTAYSIGNLKPDTEYEVSLICFDPYGMRSKPAKETFTTGGGGSGGGGSGGGGSAIEVKDVTDTTALITWAKPWVDPPPLWGCELAYGIKDVPGDRTTIDLQQKHTAYSIGNLKPDTEYEVSLICFDPYGMRSKPAKETFTTGGGGSGGGGSGGGGSAIEVKDVTDTTALITWAKPWVDPPPLWGCELAYGIKDVPGDRTTIDLQQKHTAYSIGNLKPDTEYEVSLICFDPYGMRSKPAKETFTTGGGGSGGGGSGGGGSAIEVKDVTDTTALITWAKPWVDPPPLWGCELAYGIKDVPGDRTTIDLQQKHTAYSIGNLKPDTEYEVSLICFDPYGMRSKPAKETFTTGGGGSGGGGSGTGSAMASGGGGSAIEVKDVTDTTALITWAKPWVDPPPLWGCELAYGIKDVPGDRTTIDLQQKHTAYSIGNLKPDTEYEVSLICFDPYGMRSKPAKETFTTGGGGSGGGGSGGGGSAIEVKDVTDTTALITWAKPWVDPPPLWGCELAYGIKDVPGDRTTIDLQQKHTAYSIGNLKPDTEYEVSLICFDPYGMRSKPAKETFTTGGGGSGGGGSGGGGSAIEVKDVTDTTALITWAKPWVDPPPLWGCELAYGIKDVPGDRTTIDLQQKHTAYSIGNLKPDTEYEVSLICFDPYGMRSKPAKETFTTGGGGSGGGGSGGGGSAIEVKDVTDTTALITWAKPWVDPPPLWGCELAYGIKDVPGDRTTIDLQQKHTAYSIGNLKPDTEYEVSLICFDPYGMRSKPAKETFTTGGGGSGGGGSGTLGHHHHHHHH
EC50, killing of Colo205 cells [5]: 0.0005 nM
EC50, killing of Jurkat cells [6]: 0.0001 nM
IC50 of cell killing, 786-0 cells (CellTiter-Glo) [7]: > 10 nM
IC50 of cell killing, BT-649 cells (CellTiter-Glo) [7]: > 10 nM
IC50 of cell killing, CaCo-2 cells (CellTiter-Glo) [7]: 0.044 nM
IC50 of cell killing, HPAF-II cells (CellTiter-Glo) [7]: 0.016 nM
IC50 of cell killing, HT29 cells (CellTiter-Glo) [7]: 0.01 nM
IC50 of cell killing, Hep3B cells (CellTiter-Glo) [7]: 0.023 nM
IC50 of cell killing, Hep G2 cells (CellTiter-Glo) [7]: 0.04 nM
IC50 of cell killing, Hs766T cells (CellTiter-Glo) [7]: > 10 nM
IC50 of cell killing, LoVo cells (CellTiter-Glo) [7]: 0.005 nM
IC50 of cell killing, NCI-H23 cells (CellTiter-Glo) [7]: > 10 nM
IC50 of cell killing, NCI-H522 cells (CellTiter-Glo) [7]: > 10 nM
IC50 of cell killing, SKHEP-1 cells (CellTiter-Glo) [7]: 0.055 nM
IC50 of cell killing, SNB-75 cells (CellTiter-Glo) [7]: > 10 nM
IC50 of cell killing, SNU-387 cells (CellTiter-Glo) [7]: > 10 nM
IC50 of cell killing, SNU-398 cells (CellTiter-Glo) [7]: > 10 nM
IC50 of cell killing, SNU-475 cells (CellTiter-Glo) [7]: > 10 nM
IC50 of cell killing, SW820 cells (CellTiter-Glo) [7]: > 10 nM
IC50 of cell killing, SW837 cells (CellTiter-Glo) [7]: > 10 nM
IC50 of cell killing, T84 cells (CellTiter-Glo) [7]: 0.247 nM
